# Experimental data: patent US20040106569
# Marks after values point to notes of the source that are not given here.
# B1: PKNbeta deltaN comprising amino acids 288-889 (protein)
# chain: CEQLLTAVPGRSPAAALASSPSEGWLRTKAKHQRGRGELASEVLAVLKVDNRVVGQTGWGQVAEQSWDQTFVIPLERARELEIGVHWRDWRQLCGVAFLRLEDFLDNACHQLSLSLVPQGLLFAQVTFCDPVIERRPRLQRQERIFSKRRGQDFLRRSQMNLGMAAWGRLVMNLLPPCSSPSTISPPKGCPRTPTTLREASDPATPSNFLPKKTPLGEEMTPPPKPPRLYLPQEPTSEETPRTKRPHMEPRTRRGPSPPASPTRKPPRLQDFRCLAVLGRGHFGKVLLVQFKGTGKYYAIKALKKQEVLSRDEIESLYCEKRILEAVGCTGHPFLLSLLVCFQTSSHARFVTEFVPGGDLMMQIHEDVFPEPQARFYVACVVLGLQFLHEKKIIYRDLKLDNLLLDAQGFLKIADFGLCKEGIGFGDRTSTFCGTPEFLAPEVLTQEAYTQAVDWWALGVLLYEMLVGECPFPGDTEEEVFDCIVNMDAPYPGFLSVQGLEFIQKLLQKCPEKRLGAGEQDAEEIKVQPFFRTTNWQALLARTIQPPFVPTLCGPADLRYFEGEFTGLPPALTPPAPHSLLTARQQAAFRDFDFVSERFLEP
# B2: full length PKNbeta KE588 mutant (protein)
# chain: MEEGAPRQPGPSQWPPEDEKEVIRRAIQKELKIKEGVENLRRVATDRRHLGHVQQLLRSSNRRLEQLHGELRELHARILLPGPGPGPAEPVASGPRPWAEQLRARHLEALRRQLHVELKVKQGAENMTHTCASGTPKERKLLAAAQQMLRDSQLKVALLRMKISSLEASGSPEPGPELLAEELQHRLHVEAAVAEGAKNVVKLLSSRRTQDRKALAEAQAQLQESSQKLDLLRLALEQLLEQLPPAHPLRSRVTRELRAAVPGYPQPSGTPVKPTALTGTLQVRLLGCEQLLTAVPGRSPAAALASSPSEGWLRTKAKHQRGRGELASEVLAVLKVDNRVVGQTGWGQVAEQSWDQTFVIPLERARELEIGVHWRDWRQLCGVAFLRLEDFLDNACHQLSLSLVPQGLLFAQVTFCDPVIERRPRLQRQERIFSKRRGQDFLRRSQMNLGMAAWGRLVMNLLPPCSSPSTISPPKGCPRTPTTLREASDPATPSNFLPKKTPLGEEMTPPPKPPRLYLPQEPTSEETPRTKRPHMEPRTRRGPSPPASPTRKPPRLQDFRCLAVLGRGHFGKVLLVQFKGTGKYYAIEALKKQEVLSRDEIESLYCEKRILEAVGCTGHPFLLSLLVCFQTSSHARFVTEFVPGGDLMMQIHEDVFPEPQARFYVACVVLGLQFLHEKKIIYRDLKLDNLLLDAQGFLKIADFGLCKEGIGFGDRTSTFCGTPEFLAPEVLTQEAYTQAVDWWALGVLLYEMLVGECPFPGDTEEEVFDCIVNMDAPYPGFLSVQGLEFIQKLLQKCPEKRLGAGEQDAEEIKVQPFFRTTNWQALLARTIQPPFVPTLCGPADLRYFEGEFTGLPPALTPPAPHSLLTARQQAAFRDFDFVSERFLEP
# B3: full length wildtype PKNbeta molecule (889 amino acids) (protein)
# chain: MEEGAPRQPGPSQWPPEDEKEVIRRAIQKELKIKEGVENLRRVATDRRHLGHVQQLLRSSNRRLEQLHGELRELHARILLPGPGPGPAEPVASGPRPWAEQLRARHLEALRRQLHVELKVKQGAENMTHTCASGTPKERKLLAAAQQMLRDSQLKVALLRMKISSLEASGSPEPGPELLAEELQHRLHVEAAVAEGAKNVVKLLSSRRTQDRKALAEAQAQLQESSQKLDLLRLALEQLLEQLPPAHPLRSRVTRELRAAVPGYPQPSGTPVKPTALTGTLQVRLLGCEQLLTAVPGRSPAAALASSPSEGWLRTKAKHQRGRGELASEVLAVLKVDNRVVGQTGWGQVAEQSWDQTFVIPLERARELEIGVHWRDWRQLCGVAFLRLEDFLDNACHQLSLSLVPQGLLFAQVTFCDPVIERRPRLQRQERIFSKRRGQDFLRRSQMNLGMAAWGRLVMNLLPPCSSPSTISPPKGCPRTPTTLREASDPATPSNFLPKKTPLGEEMTPPPKPPRLYLPQEPTSEETPRTKRPHMEPRTRRGPSPPASPTRKPPRLQDFRCLAVLGRGHFGKVLLVQFKGTGKYYAIKALKKQEVLSRDEIESLYCEKRILEAVGCTGHPFLLSLLVCFQTSSHARFVTEFVPGGDLMMQIHEDVFPEPQARFYVACVVLGLQFLHEKKIIYRDLKLDNLLLDAQGFLKIADFGLCKEGIGFGDRTSTFCGTPEFLAPEVLTQEAYTQAVDWWALGVLLYEMLVGECPFPGDTEEEVFDCIVNMDAPYPGFLSVQGLEFIQKLLQKCPEKRLGAGEQDAEEIKVQPFFRTTNWQALLARTIQPPFVPTLCGPADLRYFEGEFTGLPPALTPPAPHSLLTARQQAAFRDFDFVSERFLEP
# B4: full length PKNbeta with the TA mutation at amino acid 718 (protein)
# chain: MEEGAPRQPGPSQWPPEDEKEVIRRAIQKELKIKEGVENLRRVATDRRHLGHVQQLLRSSNRRLEQLHGELRELHARILLPGPGPGPAEPVASGPRPWAEQLRARHLEALRRQLHVELKVKQGAENMTHTCASGTPKERKLLAAAQQMLRDSQLKVALLRMKISSLEASGSPEPGPELLAEELQHRLHVEAAVAEGAKNVVKLLSSRRTQDRKALAEAQAQLQESSQKLDLLRLALEQLLEQLPPAHPLRSRVTRELRAAVPGYPQPSGTPVKPTALTGTLQVRLLGCEQLLTAVPGRSPAAALASSPSEGWLRTKAKHQRGRGELASEVLAVLKVDNRVVGQTGWGQVAEQSWDQTFVIPLERARELEIGVHWRDWRQLCGVAFLRLEDFLDNACHQLSLSLVPQGLLFAQVTFCDPVIERRPRLQRQERIFSKRRGQDFLRRSQMNLGMAAWGRLVMNLLPPCSSPSTISPPKGCPRTPTTLREASDPATPSNFLPKKTPLGEEMTPPPKPPRLYLPQEPTSEETPRTKRPHMEPRTRRGPSPPASPTRKPPRLQDFRCLAVLGRGHFGKVLLVQFKGTGKYYAIKALKKQEVLSRDEIESLYCEKRILEAVGCTGHPFLLSLLVCFQTSSHARFVTEFVPGGDLMMQIHEDVFPEPQARFYVACVVLGLQFLHEKKIIYRDLKLDNLLLDAQGFLKIADFGLCKEGIGFGDRTSAFCGTPEFLAPEVLTQEAYTQAVDWWALGVLLYEMLVGECPFPGDTEEEVFDCIVNMDAPYPGFLSVQGLEFIQKLLQKCPEKRLGAGEQDAEEIKVQPFFRTTNWQALLARTIQPPFVPTLCGPADLRYFEGEFTGLPPALTPPAPHSLLTARQQAAFRDFDFVSERFLEP
# Tests used:
# [1] = biological target: GST-GSK3 fusion protein (Cell Signaling Technology)
Protein,Activity (phosphorylation of MPB) (myelin basic protein),non-radioactive in vitro kinase assay (FIG. 11A) [1],"radioactive in vitro kinase assay, 32P incorporation by autoradiography (FIG. 11B) (myelin basic protein)","non-radioactive in vitro kinase assay, phosphorylated substrate detected by Western blot [1]"
B1,-*,,,
B2,,no (FIG. 11A) or background activity of unspecific kinases (FIG. 11B) were detected with the full length KE and full length TA mutatant proteinss,background activity of unspecific kinases (FIG. 11B),
B3,++*,,the full length wildtype protein kinase N beta as well as the kinase domain show activity,Only the full length wildtype protein kinase N beta or the kinase domain as defined in example 9 were suitable to phosphorylate the substrate
B4,,no (FIG. 11A) or background activity of unspecific kinases (FIG. 11B) were detected with the full length KE and full length TA mutatant proteinss,background activity of unspecific kinases (FIG. 11B),
